Reference: paper PMC13708078, “Development of a GRPR-Targeted ^99mTc/^188Re Theranostic Pair Based on NOTA-P2-RM26” (Pharmaceutics, 2026)

Assay: in vivo
Set-up: species or system mice
Settings: female, Swiss Albino SCID, mouse, iv, total radioactivity
Description: PC-3 xenografts were established in female Swiss Albino SCID mice, aged 7–8 weeks. After acclimatization, animals were injected subcutaneously into the right shoulder/upper-flank region with freshly harvested PC-3 cells suspended in PBS. Each animal received 5 × 10^6 cells. Tumors were allowed to grow for approximately three weeks until palpable solid tumors were formed. At the time of the experiments, tumor volumes ranged from 200 to 400 mm^3. Animals were then randomly assigned to experimental groups.
Biodistribution studies were performed at 30 min and 1 h post injection (p.i.). […] The injected volume was 100 μL, and the injected activity was approximately 100 kBq per animal. Animals weighed 21 ± 2 g on the day of the experiment. For in vivo blocking studies, a separate group of animals received non-radioactive NOTA-P2-RM26 (50 μg) 5 min prior to the radiotracer injection. Blocking animals were euthanized at 1 h p.i. At the selected time points, animals were euthanized. Blood, tumors, organs, and tissues of interest were collected, weighed, and measured for radioactivity using the gamma counter. The stomach and intestines were measured without content. […] Data were decay-corrected and expressed as a percentage of injected activity per gram of tissue (%IA/g). Urine/bladder and gastrointestinal/fecal content were expressed as a percentage of injected activity (%IA).

Compound `CC(C)C[C@H](NC(=O)C[C@H](O)[C@H](CC(C)C)NC(=O)[C@H](Cc1c[nH]cn1)NC(=O)CNC(=O)[C@@H](NC(=O)[C@H](C)NC(=O)[C@H](Cc1c[nH]c2ccccc12)NC(=O)[C@H](CCC(N)=O)NC(=O)[C@@H](Cc1ccccc1)NC(=O)COCCOCCNC(=O)CN1CCN(CC(=O)O)CCN(CC(=O)O)CC1)C(C)C)C(N)=O` [^99mTc2, fac-[^99mTc][Tc(CO)3(NOTA-P2-RM26)], metal not drawn] has a tissue uptake at 1 h (bone uptake) of 0.18 ± 0.07 %ID/g and a tissue uptake at 1 h (pancreatic uptake) of 3 ± 0.35 %ID/g.
